Patent US20200282012A1 (published 2020)

How the values were obtained:
[1] = biological target: T1, human complement component C3 (human, UniProt P01024 23-1663); assay: cell-based or functional assay
[2] = biological target: T1, human complement component C3; assay: cell-based or functional assay; remark: listed apart in the source

B1: CA28-2GS-BF (peptide)
peptide: ICVWQDWGAHRCTK
modifications: N-terminal acetyl; 1-methyl-tryptophan at position 4; disulfide Cys2-Cys12; AEEAc spacer between Thr13 and Lys; Lys side chain coupled to one end of a bifunctional linear 40 kD PEG of the GS type (glutaryl; amide and ester linkage); C-terminal amide
- % Parent, Q1 (Type III cells with C3d deposition), modified Ham's assay, CA28-2GS-BF 50 ug/ml [1]: 0.01%
- % Parent, Q2 (Type I and II cells with C3d deposition), modified Ham's assay, CA28-2GS-BF 50 ug/ml [1]: 0.01%
- % Parent, Q3 (Type III cells without significant C3d deposition), modified Ham's assay, CA28-2GS-BF 50 ug/ml [1]: 61.5%
- % Parent, Q4 (Type I and II cells without significant C3d deposition), modified Ham's assay, CA28-2GS-BF 50 ug/ml [1]: 38.5%

B2: (CA28-AEEAc)8-PEG40k (peptide)
peptide: ICVWQDWGAHRCTK
modifications: N-terminal acetyl; 1-methyl-tryptophan at position 4; disulfide Cys2-Cys12; AEEAc spacer between Thr13 and Lys; Lys side chain coupled to one arm of an eight-arm 40 kD PEG (SUNBRIGHT HGEO-400GS); C-terminal amide
- IC50 as a function of CA28 concentration, classical complement inhibition assay (C3b deposition ELISA, human plasma) [2]: 1930 nM
